Test results from patent US20180155451A1 (published 2018).

B1: GpH7-B3 variant S267_18N/GpL16-k0 (antibody, human IgG1, kappa)
heavy: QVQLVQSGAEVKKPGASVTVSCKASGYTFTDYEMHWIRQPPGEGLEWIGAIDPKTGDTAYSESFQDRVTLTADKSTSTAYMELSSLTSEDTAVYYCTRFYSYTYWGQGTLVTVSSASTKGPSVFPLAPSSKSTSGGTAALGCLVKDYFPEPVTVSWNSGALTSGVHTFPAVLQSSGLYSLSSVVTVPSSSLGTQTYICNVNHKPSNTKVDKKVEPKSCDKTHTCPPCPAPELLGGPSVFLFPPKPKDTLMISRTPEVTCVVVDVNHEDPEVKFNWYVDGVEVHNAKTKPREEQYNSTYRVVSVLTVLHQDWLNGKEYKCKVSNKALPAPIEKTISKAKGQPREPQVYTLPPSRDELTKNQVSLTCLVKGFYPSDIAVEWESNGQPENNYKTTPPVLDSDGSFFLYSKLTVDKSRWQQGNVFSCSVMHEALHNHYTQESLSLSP
light: DIVMTQSPLSLPVTPGEPASISCQASESLVHSNRNTYLHWYLQKPGQSPQLLIYKVSNRFSGVPDRFSGSGSGTDFTLKISRVEAEDVGVYYCSQNTHVPPTFGQGTKVEIERTVAAPSVFIFPPSDEQLKSGTASVVCLLNNFYPREAKVQWKVDNALQSGNSQESVTEQDSKDSTYSLSSTLTLSKADYEKHKVYACEVTHQGLSSPVTKSFNRGEC
notes: homodimerized antibody, mutation in both H chains; also called S267_18N Ho Ab
B2: GpH7-B3 variant Q295_12R/GpL16-k0 (antibody, human IgG1, kappa)
heavy: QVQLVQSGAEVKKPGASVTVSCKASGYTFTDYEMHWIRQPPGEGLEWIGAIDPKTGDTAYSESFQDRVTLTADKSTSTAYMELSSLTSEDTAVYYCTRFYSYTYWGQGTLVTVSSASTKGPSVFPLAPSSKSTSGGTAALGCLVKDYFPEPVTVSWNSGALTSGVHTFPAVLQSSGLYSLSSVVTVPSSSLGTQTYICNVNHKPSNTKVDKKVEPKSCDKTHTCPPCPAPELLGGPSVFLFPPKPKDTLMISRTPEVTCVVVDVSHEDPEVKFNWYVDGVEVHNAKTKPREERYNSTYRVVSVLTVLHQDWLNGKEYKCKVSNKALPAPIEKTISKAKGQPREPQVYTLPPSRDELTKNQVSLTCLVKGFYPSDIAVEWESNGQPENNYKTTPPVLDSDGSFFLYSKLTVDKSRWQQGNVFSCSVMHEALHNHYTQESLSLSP
light: DIVMTQSPLSLPVTPGEPASISCQASESLVHSNRNTYLHWYLQKPGQSPQLLIYKVSNRFSGVPDRFSGSGSGTDFTLKISRVEAEDVGVYYCSQNTHVPPTFGQGTKVEIERTVAAPSVFIFPPSDEQLKSGTASVVCLLNNFYPREAKVQWKVDNALQSGNSQESVTEQDSKDSTYSLSSTLTLSKADYEKHKVYACEVTHQGLSSPVTKSFNRGEC
notes: homodimerized antibody, mutation in both H chains; also called Q295_12R Ho Ab
B3: GpH7-B3 variant P271_19Q/GpL16-k0 (antibody, human IgG1, kappa)
heavy: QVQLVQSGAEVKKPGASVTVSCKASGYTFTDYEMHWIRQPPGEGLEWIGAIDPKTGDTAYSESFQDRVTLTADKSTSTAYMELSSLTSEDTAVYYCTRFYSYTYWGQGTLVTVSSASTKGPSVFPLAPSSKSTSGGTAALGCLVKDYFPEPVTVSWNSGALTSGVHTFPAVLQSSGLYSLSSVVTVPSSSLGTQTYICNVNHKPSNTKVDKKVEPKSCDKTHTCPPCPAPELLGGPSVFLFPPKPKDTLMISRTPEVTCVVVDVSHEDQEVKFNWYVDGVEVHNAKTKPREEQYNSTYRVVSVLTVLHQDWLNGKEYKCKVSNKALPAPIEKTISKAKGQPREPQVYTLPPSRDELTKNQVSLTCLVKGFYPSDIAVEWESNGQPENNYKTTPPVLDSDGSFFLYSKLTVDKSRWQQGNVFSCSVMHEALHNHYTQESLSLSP
light: DIVMTQSPLSLPVTPGEPASISCQASESLVHSNRNTYLHWYLQKPGQSPQLLIYKVSNRFSGVPDRFSGSGSGTDFTLKISRVEAEDVGVYYCSQNTHVPPTFGQGTKVEIERTVAAPSVFIFPPSDEQLKSGTASVVCLLNNFYPREAKVQWKVDNALQSGNSQESVTEQDSKDSTYSLSSTLTLSKADYEKHKVYACEVTHQGLSSPVTKSFNRGEC
notes: homodimerized antibody, mutation in both H chains; also called P271_19Q Ho Ab
B4: GpH7-B3 variant P271_10E/GpL16-k0 (antibody, human IgG1, kappa)
heavy: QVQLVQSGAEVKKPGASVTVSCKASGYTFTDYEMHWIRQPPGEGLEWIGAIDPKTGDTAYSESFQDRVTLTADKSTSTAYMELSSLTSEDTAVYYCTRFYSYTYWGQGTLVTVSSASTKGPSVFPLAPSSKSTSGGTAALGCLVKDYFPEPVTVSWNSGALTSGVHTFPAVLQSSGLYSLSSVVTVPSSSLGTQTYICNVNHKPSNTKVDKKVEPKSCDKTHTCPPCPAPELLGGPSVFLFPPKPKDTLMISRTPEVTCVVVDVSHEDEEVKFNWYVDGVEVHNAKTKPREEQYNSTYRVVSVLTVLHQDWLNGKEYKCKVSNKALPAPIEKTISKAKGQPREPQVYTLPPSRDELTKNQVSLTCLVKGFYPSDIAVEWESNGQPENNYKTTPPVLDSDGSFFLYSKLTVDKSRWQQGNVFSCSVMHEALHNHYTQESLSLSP
light: DIVMTQSPLSLPVTPGEPASISCQASESLVHSNRNTYLHWYLQKPGQSPQLLIYKVSNRFSGVPDRFSGSGSGTDFTLKISRVEAEDVGVYYCSQNTHVPPTFGQGTKVEIERTVAAPSVFIFPPSDEQLKSGTASVVCLLNNFYPREAKVQWKVDNALQSGNSQESVTEQDSKDSTYSLSSTLTLSKADYEKHKVYACEVTHQGLSSPVTKSFNRGEC
notes: homodimerized antibody, mutation in both H chains; also called P271_10E Ho Ab
B5: GpH7-B3 variant K334_13S/GpL16-k0 (antibody, human IgG1, kappa)
heavy: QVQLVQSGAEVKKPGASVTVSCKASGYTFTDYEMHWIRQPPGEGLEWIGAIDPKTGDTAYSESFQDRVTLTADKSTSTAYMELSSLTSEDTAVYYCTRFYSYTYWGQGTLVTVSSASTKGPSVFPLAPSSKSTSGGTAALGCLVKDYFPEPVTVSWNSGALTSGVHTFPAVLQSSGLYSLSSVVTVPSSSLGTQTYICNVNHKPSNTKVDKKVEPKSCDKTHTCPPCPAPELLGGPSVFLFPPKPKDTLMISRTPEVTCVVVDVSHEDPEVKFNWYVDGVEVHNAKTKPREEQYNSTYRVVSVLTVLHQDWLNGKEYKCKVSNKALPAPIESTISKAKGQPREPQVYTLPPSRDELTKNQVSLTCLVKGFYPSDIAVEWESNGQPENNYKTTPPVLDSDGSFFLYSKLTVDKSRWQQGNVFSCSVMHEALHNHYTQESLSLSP
light: DIVMTQSPLSLPVTPGEPASISCQASESLVHSNRNTYLHWYLQKPGQSPQLLIYKVSNRFSGVPDRFSGSGSGTDFTLKISRVEAEDVGVYYCSQNTHVPPTFGQGTKVEIERTVAAPSVFIFPPSDEQLKSGTASVVCLLNNFYPREAKVQWKVDNALQSGNSQESVTEQDSKDSTYSLSSTLTLSKADYEKHKVYACEVTHQGLSSPVTKSFNRGEC
notes: homodimerized antibody, mutation in both H chains; also called K334_13S Ho Ab
B6: GpH7-B3 variant K334_08L/GpL16-k0 (antibody, human IgG1, kappa)
heavy: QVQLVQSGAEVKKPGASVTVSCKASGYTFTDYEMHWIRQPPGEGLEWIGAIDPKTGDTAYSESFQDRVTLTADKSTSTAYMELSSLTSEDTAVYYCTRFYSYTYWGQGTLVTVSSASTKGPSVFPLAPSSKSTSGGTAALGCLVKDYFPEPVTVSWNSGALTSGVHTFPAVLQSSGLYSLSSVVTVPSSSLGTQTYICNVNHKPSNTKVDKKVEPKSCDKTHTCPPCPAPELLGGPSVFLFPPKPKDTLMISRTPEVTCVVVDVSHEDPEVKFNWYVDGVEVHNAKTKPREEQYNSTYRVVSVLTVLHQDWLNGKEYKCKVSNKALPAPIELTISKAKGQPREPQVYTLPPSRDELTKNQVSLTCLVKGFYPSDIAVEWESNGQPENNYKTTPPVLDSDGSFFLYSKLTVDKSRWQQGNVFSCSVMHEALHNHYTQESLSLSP
light: DIVMTQSPLSLPVTPGEPASISCQASESLVHSNRNTYLHWYLQKPGQSPQLLIYKVSNRFSGVPDRFSGSGSGTDFTLKISRVEAEDVGVYYCSQNTHVPPTFGQGTKVEIERTVAAPSVFIFPPSDEQLKSGTASVVCLLNNFYPREAKVQWKVDNALQSGNSQESVTEQDSKDSTYSLSSTLTLSKADYEKHKVYACEVTHQGLSSPVTKSFNRGEC
notes: homodimerized antibody, mutation in both H chains; also called K334_08L Ho Ab
B7: GpH7-B3 variant S267_10E/GpL16-k0 (antibody, human IgG1, kappa)
heavy: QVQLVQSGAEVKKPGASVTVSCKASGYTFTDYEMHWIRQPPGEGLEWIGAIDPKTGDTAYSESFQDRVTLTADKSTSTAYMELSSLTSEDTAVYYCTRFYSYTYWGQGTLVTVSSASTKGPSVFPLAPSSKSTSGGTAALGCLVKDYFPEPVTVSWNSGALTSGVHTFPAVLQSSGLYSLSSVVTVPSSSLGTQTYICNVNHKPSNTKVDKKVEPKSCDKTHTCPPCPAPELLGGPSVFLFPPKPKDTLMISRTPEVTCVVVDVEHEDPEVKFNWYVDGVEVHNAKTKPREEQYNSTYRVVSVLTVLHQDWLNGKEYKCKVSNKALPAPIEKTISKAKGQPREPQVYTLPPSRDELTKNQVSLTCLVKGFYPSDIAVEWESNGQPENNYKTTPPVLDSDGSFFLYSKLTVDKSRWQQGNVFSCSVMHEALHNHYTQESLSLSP
light: DIVMTQSPLSLPVTPGEPASISCQASESLVHSNRNTYLHWYLQKPGQSPQLLIYKVSNRFSGVPDRFSGSGSGTDFTLKISRVEAEDVGVYYCSQNTHVPPTFGQGTKVEIERTVAAPSVFIFPPSDEQLKSGTASVVCLLNNFYPREAKVQWKVDNALQSGNSQESVTEQDSKDSTYSLSSTLTLSKADYEKHKVYACEVTHQGLSSPVTKSFNRGEC
notes: homodimerized antibody, mutation in both H chains; also called S267_10E Ho Ab
B8: GpH7-B3 variant K334_14T/GpL16-k0 (antibody, human IgG1, kappa)
heavy: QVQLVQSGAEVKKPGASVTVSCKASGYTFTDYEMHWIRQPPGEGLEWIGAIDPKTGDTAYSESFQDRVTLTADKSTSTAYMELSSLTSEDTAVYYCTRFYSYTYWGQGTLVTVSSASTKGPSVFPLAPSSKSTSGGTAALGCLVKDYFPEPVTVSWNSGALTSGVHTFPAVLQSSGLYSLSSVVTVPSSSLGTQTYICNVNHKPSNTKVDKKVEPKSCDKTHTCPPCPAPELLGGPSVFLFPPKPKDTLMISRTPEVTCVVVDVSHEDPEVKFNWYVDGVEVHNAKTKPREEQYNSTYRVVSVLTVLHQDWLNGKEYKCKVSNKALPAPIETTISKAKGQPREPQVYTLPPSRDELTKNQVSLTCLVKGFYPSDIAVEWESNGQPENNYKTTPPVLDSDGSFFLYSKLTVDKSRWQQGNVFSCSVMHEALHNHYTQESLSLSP
light: DIVMTQSPLSLPVTPGEPASISCQASESLVHSNRNTYLHWYLQKPGQSPQLLIYKVSNRFSGVPDRFSGSGSGTDFTLKISRVEAEDVGVYYCSQNTHVPPTFGQGTKVEIERTVAAPSVFIFPPSDEQLKSGTASVVCLLNNFYPREAKVQWKVDNALQSGNSQESVTEQDSKDSTYSLSSTLTLSKADYEKHKVYACEVTHQGLSSPVTKSFNRGEC
notes: homodimerized antibody, mutation in both H chains; also called K334_14T Ho Ab
B9: GpH7-B3 variant S239_10E/GpL16-k0 (antibody, human IgG1, kappa)
heavy: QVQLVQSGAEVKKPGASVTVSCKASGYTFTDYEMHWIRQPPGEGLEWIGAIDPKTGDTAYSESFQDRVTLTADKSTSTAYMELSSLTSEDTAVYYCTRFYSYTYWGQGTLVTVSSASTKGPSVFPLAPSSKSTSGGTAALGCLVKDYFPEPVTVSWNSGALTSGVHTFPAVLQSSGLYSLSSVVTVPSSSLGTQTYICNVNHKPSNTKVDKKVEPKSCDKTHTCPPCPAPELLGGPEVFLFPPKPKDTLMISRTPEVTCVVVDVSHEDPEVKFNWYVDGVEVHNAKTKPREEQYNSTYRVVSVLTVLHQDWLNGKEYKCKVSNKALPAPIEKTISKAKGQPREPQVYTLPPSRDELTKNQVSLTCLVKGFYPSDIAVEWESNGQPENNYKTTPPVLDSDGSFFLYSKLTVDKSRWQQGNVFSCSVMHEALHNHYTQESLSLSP
light: DIVMTQSPLSLPVTPGEPASISCQASESLVHSNRNTYLHWYLQKPGQSPQLLIYKVSNRFSGVPDRFSGSGSGTDFTLKISRVEAEDVGVYYCSQNTHVPPTFGQGTKVEIERTVAAPSVFIFPPSDEQLKSGTASVVCLLNNFYPREAKVQWKVDNALQSGNSQESVTEQDSKDSTYSLSSTLTLSKADYEKHKVYACEVTHQGLSSPVTKSFNRGEC
notes: homodimerized antibody, mutation in both H chains; also called S239_10E Ho Ab
B10: GpH7-B3 variant P271_08L/GpL16-k0 (antibody, human IgG1, kappa)
heavy: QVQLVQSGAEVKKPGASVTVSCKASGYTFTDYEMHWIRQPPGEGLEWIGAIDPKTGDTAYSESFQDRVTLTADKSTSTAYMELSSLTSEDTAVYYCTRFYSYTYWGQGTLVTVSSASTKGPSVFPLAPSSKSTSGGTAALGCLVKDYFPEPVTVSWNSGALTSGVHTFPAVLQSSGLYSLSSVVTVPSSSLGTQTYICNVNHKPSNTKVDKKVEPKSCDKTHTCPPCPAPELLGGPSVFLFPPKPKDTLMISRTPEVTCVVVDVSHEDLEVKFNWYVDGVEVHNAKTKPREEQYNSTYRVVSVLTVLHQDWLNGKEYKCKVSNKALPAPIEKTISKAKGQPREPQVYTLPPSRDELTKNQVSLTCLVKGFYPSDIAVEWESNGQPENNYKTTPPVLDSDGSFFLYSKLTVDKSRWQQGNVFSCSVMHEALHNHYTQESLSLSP
light: DIVMTQSPLSLPVTPGEPASISCQASESLVHSNRNTYLHWYLQKPGQSPQLLIYKVSNRFSGVPDRFSGSGSGTDFTLKISRVEAEDVGVYYCSQNTHVPPTFGQGTKVEIERTVAAPSVFIFPPSDEQLKSGTASVVCLLNNFYPREAKVQWKVDNALQSGNSQESVTEQDSKDSTYSLSSTLTLSKADYEKHKVYACEVTHQGLSSPVTKSFNRGEC
notes: homodimerized antibody, mutation in both H chains; also called P271_08L Ho Ab
B11: GpH7-B3 variant K334_15Y/GpL16-k0 (antibody, human IgG1, kappa)
heavy: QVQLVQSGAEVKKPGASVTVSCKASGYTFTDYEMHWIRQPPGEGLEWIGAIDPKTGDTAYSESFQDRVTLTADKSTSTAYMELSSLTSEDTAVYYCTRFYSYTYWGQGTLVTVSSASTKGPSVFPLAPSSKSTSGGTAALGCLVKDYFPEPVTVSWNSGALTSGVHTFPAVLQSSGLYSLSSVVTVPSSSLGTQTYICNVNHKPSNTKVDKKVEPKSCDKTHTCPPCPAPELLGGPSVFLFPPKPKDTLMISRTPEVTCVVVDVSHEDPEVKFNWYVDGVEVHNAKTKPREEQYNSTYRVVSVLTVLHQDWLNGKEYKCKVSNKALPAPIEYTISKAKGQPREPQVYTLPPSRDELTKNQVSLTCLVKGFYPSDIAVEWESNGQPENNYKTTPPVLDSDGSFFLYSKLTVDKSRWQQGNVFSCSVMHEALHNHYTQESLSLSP
light: DIVMTQSPLSLPVTPGEPASISCQASESLVHSNRNTYLHWYLQKPGQSPQLLIYKVSNRFSGVPDRFSGSGSGTDFTLKISRVEAEDVGVYYCSQNTHVPPTFGQGTKVEIERTVAAPSVFIFPPSDEQLKSGTASVVCLLNNFYPREAKVQWKVDNALQSGNSQESVTEQDSKDSTYSLSSTLTLSKADYEKHKVYACEVTHQGLSSPVTKSFNRGEC
notes: homodimerized antibody, mutation in both H chains; also called K334_15Y Ho Ab

target: T1, FcγRIa extracellular domain with C-terminal His tag (human, UniProt P12314 16-292); test: SPR (Biacore), relative FcγRIa binding, GpH7-B3/GpL16-k0 (HoCon Ab) = 100
T1 construct: extracellular domain; soluble analyte in Biacore; also called FcgRI; CD64
T1 sequence (P12314 16-292): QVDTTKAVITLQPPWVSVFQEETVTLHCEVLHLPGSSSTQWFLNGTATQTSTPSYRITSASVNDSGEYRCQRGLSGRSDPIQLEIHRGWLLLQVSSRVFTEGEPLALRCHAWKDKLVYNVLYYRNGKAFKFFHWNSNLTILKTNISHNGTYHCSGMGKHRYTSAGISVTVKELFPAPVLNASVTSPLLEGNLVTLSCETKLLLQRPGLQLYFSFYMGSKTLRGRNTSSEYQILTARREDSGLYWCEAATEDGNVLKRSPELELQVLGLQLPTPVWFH

Compared with B1, B2 is lower in Ho/Con_1a: 107 % of control for the first, 101 % of control for the second.

Compared with B3, B4 is lower in Ho/Con_1a: 104 % of control for the first, 103 % of control for the second.

Compared with B5, B6 is higher in Ho/Con_1a: 106 % of control for the first, 108 % of control for the second.

Going from B7 to B8, the Ho/Con_1a falls from 107 % of control to 106 % of control.

First: B9
Second: B10
The Ho/Con_1a of the first is higher: 106 % of control for the first, 103 % of control for the second.

In the case of B11, the Ho/Con_1a is reported as 107 % of control.
